Biological target: EEEV PE6 virus-like particle (Eastern equine encephalitis virus, strain PE6)
Test: BLI

Substance | Kd
ApoER2_(iso2) LA1-3-Fc (Fc fusion) | 705 nM
S. vulgaris VLDLR LA1-8-Fc (Fc fusion) | 11 nM
VLDLR LA1-2-Fc (from UniProt P98155-1 28-113) (Fc fusion) | 505 nM
VLDLR LA1-3-Fc (from UniProt P98155-1 28-152) (Fc fusion) | 363 nM
VLDLR LA2-3-Fc (from UniProt P98155-1 70-151) (Fc fusion) | 1800 nM
VLDLR LA2-4-Fc (from UniProt P98155-1 70-190) (Fc fusion) | 1100 nM
VLDLR LA2-5-Fc (from UniProt P98155-1 70-231) (Fc fusion) | 42.5 nM
VLDLR LA3-4-Fc (from UniProt P98155-1 111-190) (Fc fusion) | 3900 nM
VLDLR LA3-5-Fc (from UniProt P98155-1 111-236) (Fc fusion) | 32.3 nM
VLDLR LA3-6-Fc (from UniProt P98155-1 111-276) (Fc fusion) | 71.5 nM
VLDLR LA4-5-Fc (from UniProt P98155-1 152-236) (Fc fusion) | 11900 nM
VLDLR LA4-6-Fc (from UniProt P98155-1 152-275) (Fc fusion) | 2300 nM
VLDLR LA5-6-Fc (from UniProt P98155-1 191-275) (Fc fusion) | 4200 nM
